Source: patent publication US11160869B2 (priority 2019, dated 2021)

Assays:
[1] = tested on: plasma cytokines, IL-1Ra; assay: MSD 10-plex proinflammatory panel and plasma IL-1Ra immunoassay, oxazolone dose-response; parameters: species or system mice; conditions: mouse, in vivo
Text: Plasma cytokines were quantified using the V-plex Proinflammatory Panel 1 Mouse Kit. Plasma IL-1Ra was quantitated by sandwich immunoassay using an antibody pair from the Mouse IL-1Ra/IL-1F3 DuoSet ELISA (R&D Systems #DY480), Streptavidin SULFO-TAG Labeled (MSD #R32AD-1), Multi-Array 96 Plate Pack, SECTOR Plate MSD #L15XA-3 and Read Buffer T (4×) (MSD #R92TC-2). Samples were read on the QuickPlex SQ 120 plate reader (Meso Scale Discovery, Rockville, Md.).

[2] = tested on: colonic marker expression; assay: Colonic sigmoidoscopy spray in NHP: pro-/anti-inflammatory and tissue repair markers; assay type: in vivo, Macaca fascicularis; conditions: 1, 3, 10 mg
Method: To assess the effect of an IL-10 delivery construct on pro-inflammatory and anti-inflammatory markers the IL-10 delivery construct was delivered to male Macaca fascicularis monkeys (about 5 to about 8 kg) by colonic sigmoidoscopy with a spray nozzle. The IL-10 delivery construct was administered at doses of 1 mg, 3 mg, and 10 mg formulated in albumin.

[3] = tested on: STAT3; assay: In vivo pSTAT3 induction in lamina propria, immunofluorescence confocal microscopy; parameters: species or system Balb/C mice
Method: In vivo studies in mice were performed where the biological activity of human IL-10 following transcytosis was assessed for its ability to stimulate the mouse IL-10 receptor and increase phosphorylation of STAT3 (pSTAT3) in cells within the lamina propria.
An extensive amount of rhIL-10 (SEQ ID NO: 5) was trafficked through enterocytes. Additionally, there were a population of lymphocyte-like cells at the basolateral surface of enterocytes and within the lamina propria that were pSTAT3 positive.
Entire intestines of mice were isolated and processed as a “swiss role” and localization of pSTAT3 was detected by immunofluorescence confocal microscopy (FIG. 110).

[4] = Intraluminal injection in T-cell transfer model: rhIL-10 ELISA in intestinal tissue and serum; assay type: in vivo, BALB/c and SCID mice
Method: This study was conducted to examine the potential for the carrier protein to transport rhIL-10 from the intestinal lumen into the submucosal region in inflamed intestinal tissue. The T lymphocyte (T cell) transfer model was used as it is a well-established model of induced chronic colitis in mice and presents many of the essential immunological hallmarks observed in IBD patients. Nine BALB/c mice and twelve SCID mice, including nine with the colitis-like model of inflammation, were dosed with 20 μl of test article via intraluminal injection into the distal ileum and the proximal, middle and distal colon. […] In each group, two mice were terminated 10 minutes after intraluminal injections, and one was terminated 40 minutes after intraluminal injections. Intestinal tissue and serum were collected. Collected tissue was fixed, embedded, sectioned and H&E stained for histological assessment of inflammatory status. ELISA analysis to measure rhIL 10 was performed on lysates prepared from intestinal tissue and serum (FIGS. 106A-106D).

[5] = tested on: ulcerative colitis; assay: Phase 1b multiple ascending dose in patients with active ulcerative colitis; assay type: in vivo, human; conditions: for placebo-adjusted mean reduction of FCP: baseline FCP >150 μg/g
Method: Data was gathered on the safety, tolerability, pharmacokinetics, pharmacodynamics, and initial clinical response following a multiple ascending dose (MAD) of the IL-10 delivery construct in adult patients with active UC over 14 days of treatment. […] A coating with a weight ratio of 50:50 of Eudragit® L30D55: Eudragit® FS30D was applied with a thickness of 14.8 to 16.0 mg/cm^2 and a weight of approximately 76 mg to each capsule. Placebo capsules were generated using similarly coated empty capsules.
A total of four cohorts were dosed with either 1 mg, 3 mg, 10, mg or 30 mg of the IL-10 delivery construct, randomized 3:1 to receive the IL-10 delivery construct or a placebo administered once daily for fourteen days. The goal of the trial was to assess the safety of the IL-10 delivery construct and any change in UC disease activity, through endoscopy, histology, biomarkers, and serum samples. Stool samples and colonic biopsies were obtained at baseline and day 14 of treatment to assess fecal calprotectin as well as histology based upon blinded central read of the Geboes scoring system. Fecal calprotectin is an objective marker of clinical response in UC studies and the Geboes scoring system is a measure of histological response. The Geboes scoring system of this example used a 0-22 point histologic scoring system in which higher scores represent more severe disease.

[6] = Purification with and without sulfitolysis: SEC-HPLC forms, yield and dimer recovery after Capto Q; conditions: for Dimer Purity after Capto Q Chromatography: Capto Q load 1680 mg; for Dimer Purity: after Capto Q chromatography
Method: Refolding in both processes was carried out at 4° C. The refolding solution used in both processes contained 1 mM reduced glutathione, 0.5 mM oxidized glutathione, 1M Arginine-HCl, 250 mM sucrose, 100 mM Tris pH 8.5 at 4° C., and 2 mM EDTA.

[7] = tested on: STAT3; assay: pSTAT3 induction and hIL-10 in intestinal tissue 40 min after oral gavage, immunofluorescence and image analysis; assay type: in vivo, rat; conditions: 40 min post oral gavage
Method: This observation is consistent with findings in mice that intestinal epithelial cells can express IL-10 receptors at their apical surface under certain conditions associated with development and maintenance of barrier function. […] In order to quantify how test articles affected intestinal IL-10 signal transduction pathways, image analysis was performed: high-throughput image batches were collected, segmented by epithelial versus lamina propria localization, and then by cellular features.

[8] = Oral gavage 10 mg/kg in non-inflamed mice: hIL-10 in serum and tissue, serum IL-1Ra; assay type: in vivo
[9] = tested on: STAT3; assay: STAT3 phosphorylation in J774.2 macrophage cells
[10] = 1 mg once daily for 14 days, n = 3 UC patients
[11] = 3 mg once daily for 14 days, n = 3 UC patients
[12] = 10 mg once daily for 14 days, n = 3 UC patients
[13] = 30 mg once daily for 14 days, n = 3 UC patients
[14] = No Sulfitolysis of SIB (2x UF/DF at 4° C.), SEC-HPLC before AEX
[15] = No Sulfitolysis of SIB (2x UF/DF for 66 h RT), SEC-HPLC before AEX
[16] = No Sulfitolysis of SIB (97 mL Capto Q)
[17] = Sulfitolysis of SIB (97 mL Capto Q)
[18] = Sulfitolysis of SIB (TFF-2 for 20 h at RT), SEC-HPLC after UF/DF, before AEX

B1: IL-10 delivery construct: recombinant homodimeric fusion protein: N-terminal methionine, cholix386 domain, polyGlySer spacer, recombinant human IL-10 (protein)
chain: MVEEALNIFDECRSPCSLTPEPGKPIQSKLSIPSDVVLDEGVLYYSMTINDEQNDIKDEDKGESIITIGEFATVRATRHYVNQDAPFGVIHLDITTENGTKTYSYNRKEGEFAINWLVPIGEDSPASIKISVDELDQQRNIIEVPKLYSIDLDNQTLEQWKTQGNVSFSVTRPEHNIAISWPSVSYKAAQKEGSRHKRWAHWHTGLALCWLVPMDAIYNYITQQNCTLGDNWFGGSYETVAGTPKVITVKQGIEQKPVEQRIHFSKGNAMSALAAHRVCGVPLETLARSRKPRDLTDDLSCAYQAQNIVSLFVATRILFSHLDSVFTLNLDEQEPEVAERLSDLRRINENNPGMVTQVLTVARQIYNDYVTHHPGLTPEQTSAGAQAGGGGSGGGGSGGGGSPGQGTQSENSCTHFPGNLPNMLRDLRDAFSRVKTFFQMKDQLDNLLLKESLLEDFKGYLGCQALSEMIQFYLEEVMPQAENQDPDIKAHVNSLGENLKTLRLRLRRCHRFLPCENKSKAVEQVKNAFNKLQEKGIYKAMSEFDIFINYIEAYMTMKIRN
modifications: homodimer
plasma cytokines, MSD 10-plex, vs Vehicle [1]: no significant differences | expression of anti-inflammatory markers [2]: increased expression of anti-inflammatory markers | expression of pro-inflammatory markers [2]: decreased expression of pro-inflammatory markers | expression of tissue repair and wound healing biomarkers [2]: increased expression of biomarkers associated with tissue repair and wound healing | phosphorylation of STAT3 in cells within the lamina propria ([3]; intraluminal injection into jejunum): increased phosphorylation of STAT3 | IL-10 activity (pSTAT3) along the intestine ([3]; oral gavage): demonstrated along the length of intestine | rhIL-10 levels in inflamed tissue relative to rhIL-10 alone ([4]; 159 pmoles): approximately 10 fold higher | uptake in normal intestinal tissues compared to rhIL-10 alone ([4]; 159 pmoles): two- to five-fold higher | rhIL-10 in intestinal tissue compared to rhIL-10 alone ([4]; 159 pmoles, 10-minute exposure): substantially higher | rhIL-10 in serum of healthy animals ([4]; intraluminal injection): moderately high rhIL-10 detected | rhIL-10 in serum of inflamed animals ([4]; intraluminal injection): minimal amounts of rhIL-10 were detected | # of TEASs [5, 10]: 2 | TEASs (% pts) [5, 10]: 67% | placebo-adjusted mean reduction of FCP ([5]; 1 mg, 14 days): 44% | # of TEASs [5, 11]: 7 | TEASs (% pts) [5, 11]: 67% | placebo-adjusted mean reduction of FCP ([5]; 3 mg, 14 days): 27% | FCP activity at higher doses ([5]; 10 mg and 30 mg): diminution of activity at higher doses | # of TEASs [5, 12]: 5 | TEASs (% pts) [5, 12]: 67% | Geboes score of one UC patient (22 point scale) ([5]; 10 mg, pre-dose to 14 days): improved from a score of 15 to a score of three | # of TEASs [5, 13]: 6 | TEASs (% pts) [5, 13]: 67% | tolerability in patients with UC ([5]; 1, 3, 10, 30 mg once daily 14 days): well tolerated | CRP levels compared to placebo ([5]; 1 and 3 mgs, baseline CRP greater than 5 mg/L): greater reductions in CRP levels | TEAEs in the 12 active patients ([5]; 14 days): 20 | patients with reduced Geboes scores ([5]; 14 days, (6/10) active patients): 60% | # of TEASs ([5]; All Active, n = 12 UC patients): 20 | TEASs (% pts) ([5]; All Active, n = 12 UC patients): 67% | detection in systemic circulation ([5]; human, in vivo): not detected in systemic circulation | treatment emergent AEs of anemia or thrombocytopenia ([5]; human, in vivo): no treatment emergent AEs of anemia or thrombocytopenia were observed | Aggregate % [6, 14]: 36% | Monomer % [6, 14]: 22% | Aggregate % [6, 15]: 57% | Monomer % [6, 15]: 11% | Dimer Purity after Capto Q Chromatography [6, 16]: 84% | Dimer Purity [6, 16]: 84% | Dimer Purity after Capto Q Chromatography [6, 17]: 74% | Dimer Purity [6, 17]: 74% | Aggregate % [6, 18]: 68% | Monomer % [6, 18]: 8% | Dimer Purity ([6]; Sulfitolysis of SIB (average of 3)): 82-83% | hIL-10 and pSTAT3 in intestinal tissue [7]: extensive amounts of hIL-10 and a large number of cells that were positive for pSTAT3 within the lamina propria | onset of IL-1Ra induction ([8]; 10 mg/kg): 2.5-4 h post oral gavage | hIL-10 in small intestinal lysates relative to colonic lysates ([8]; 10 mg/kg oral gavage): ~10 fold higher | serum IL-1Ra levels ([8]; 10 mg/kg oral gavage, 4 h): significantly increased | amplitude of pSTAT3/total STAT3 [9]: ~1.47% | EC50 ([9]; read-out: EC50, phosphorylation of STAT3, 20 min stimulation): 0.264 nM
